The text below walks through data of PMC4954732.

Data set [1] addresses T1, SrbA bHLHZ (Aspergillus fumigatus) (UniProt Q4WIN1).
T1 sequence: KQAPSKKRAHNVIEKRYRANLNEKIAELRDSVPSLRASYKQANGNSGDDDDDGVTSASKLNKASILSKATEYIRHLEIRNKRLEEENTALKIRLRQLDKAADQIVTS
In words: SPR. To be noted: SPR on immobilised biotinylated duplexes, 1:1 model with mass transport; buffer, salt, pH and temperature not stated (protocols of refs 19, 54).

Data set [2] relates to CBC (HapB/HapC/HapE) (Aspergillus fumigatus). In words: SPR. To be noted: SPR on immobilised biotinylated duplexes, 1:1 model with mass transport; buffer, salt, pH and temperature not stated (protocols of refs 19, 54).

A word on the Kd: it is the free concentration of one partner at which half of the binding sites on the other are occupied at equilibrium, for simple one-to-one binding. As for “AGAATCACGCGGTCCG (double strand) [SRE1 (cyp51Ap-320-16)]”, the Kd in data set [1] is 22.8 nM.

For “CGGCTCAGCACACATC (double strand) [SRE2 (cyp51Ap-295-16)]”, the Kd in data set [1] came to 273 nM.

For “GCTGAGCCGAATGAAAGTTGCCTAATTACTAAGGTGT (double strand) [cyp51A-293]”, in data set [2], the Kd was 74.4 nM.

With “GCTGAGCCGAATGAATCACGCGGTCCGGATGTGTGCT (double strand) [cyp51A-TR34]”, the fold decrease in affinity (fold lower affinity than cyp51A-293) in data set [2] is 8.
